Data from article PMC314469, “Protein Interaction Networks by Proteome Peptide Scanning” (PLoS Biology, 2004).

T1: amphyphisin SH3 (AMPH_HUMAN), P49418
T1 chain: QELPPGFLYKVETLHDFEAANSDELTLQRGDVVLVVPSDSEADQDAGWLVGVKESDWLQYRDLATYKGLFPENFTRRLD


Columns and labels:
[1] = target: T1, amphyphisin SH3 (AMPH_HUMAN), P49418; test: SPOT array
[2] = target: endophilin SH3 (SH3G2_HUMAN), Q99962; test: SPOT array

Binder | normalised SPOT signal, Boehringer light units (BLU); mean over the file's lines of this peptide [1] | normalised SPOT signal, Boehringer light units (BLU); mean over the file's lines of this peptide [2]
DGSFLARPSKSNPG [Q06124 26-39] | 96.2 | 36.7
AEEPLHRPKKELSA [P42858 83-96] | 134 | 70.2
DGKFLLRPRKEQGT [P43403 184-197] | 424 | 130
DGVSLSRPGRTADS [P39191 408-421] | 200 | 113
DMQSFRRPSAASID [Q96QH2 513-526] | 16.7 | 56
DGKDPRRPKRPRTI [O60663 189-202] | 3740 | 85
DLLSPRRPPDDPWA [BAC03422 263-277] | 20.5 | 83
DKSPPPRPPSSPYP [O15550 915-929] | 58.2 | 4090
DPEVLKRPEYFGKF [Q9NZN6 122-135] | 43.9 | 108
DKSPPPRPPTSPYP [O14607 862-876] | 83.4 | 4530
DPEDLKRPDPASLK [Q8WTY4 218-231] | 16.1 | 82.4
DGRLLYRPNKAGET [Q9ULH0 399-412] | 20 | 44.6
DKKSPTRPKRQAKP [Q9P2W5 3-16] | 3780 | 500
DKADLIRPKRKYEK [Q9H2F5 327-340] | 417 | 64.3

More lines, now with the values ahead:

normalised SPOT signal, Boehringer light units (BLU); mean over the file's lines of this peptide [1] | normalised SPOT signal, Boehringer light units (BLU); mean over the file's lines of this peptide [2] | Binder
4130 | 658 | DKKSPTRPKRHAKP [Q99710 3-16]
58.3 | 240 | DKNIPMKPPTPLLN [AAM33634 99-113]
40.1 | 80 | DMAIPSKPPAASPE [Q8TEH3 531-545]
31.5 | 27.9 | DLSGLKRPSSSAST [Q9Y338 401-414]
35.1 | 67.7 | DKIPFKRPSTYGVP [O95444 394-407]
14900 | 287 | DGRTPLRPSRNTKQ [Q9H0H1 56-69]
37.2 | 41.3 | DIPEPRRPVVEQAL [O15031 1306-1319]
22 | 51.1 | AAESPGRPPPTAAE [Q9UPS7 514-528]
1930 | 138 | DNIPLSRPKRNLSR [Q9Y4P9 18-31]
3530 | 794 | DKLSPDRPIRDTRH [Q9ULT9 130-143]
37.9 | 0 | DIKPLKRPRDEDDA [P11387 132-145]
64.8 | 2640 | DLHPPPRPPSPTEI [O43154 1259-1273]
31.7 | 98.6 | DNGGFKRPLAPSGR [Q9Y5U2 118-131]
24.5 | 35.1 | AEEQLRRPRIVHVG [Q9UBR1 62-75]
41.9 | 71.6 | DNLKLFRPKKLLPK [Q9BQL6 374-387]
33.3 | 66 | DLPGPRRPAAAAAM [Q9NQ62 12-25]
75 | 85.2 | DIPGPTRPPGQVLS [AAH30713 119-133]
